A short description of the data set: soluble on expression in E. coli; label from the status in PepcDB or PDB records.
With “MSLIVKVSPKGSMDQLSQLEVDRLKKSAQSALYQLYRNCSLAVLAAGLKTDNSKALFEQYSDFDIHVLQRERGVKLELINPPEQAFVDGQIITGIQEHLFSVLRDILYISDKYDTLKHINLTNASHITNVVFDILRNARAIAPMKDPNVVVCWGGHSINAIEYQYTREVGYQLGLRELDICTGCGPGAMEGPMKGAAIGHSKQRIKNARYIGLTEPSIIAAEPPNQIVNELVILPDIEKRLEAFVRLGHGIIIFPGGAGTAEELLYILGILLNKENQETPFPLVLTGPSESADYFIKIDEFIAATLGPEAQQKYQIIIDNPAEVARVMKQGMEQVKNHRRTTGDAYQYQWGLKIEPEFQLPFIPTHDVMANLNLHFQSNKAELAANLRKAFSGIVAGNVKSETIKQIEQLGPFHIKGDPHLMELMDNLLGAFVAQHRMKLPGSAYVPCYQIVKEGHHHHHH”, the “soluble on expression in E. coli” value is given as “soluble”.
As for “MSLIYTGRPMLGTERIRGLTIKIFLPLMELLGRVMGVGREEVRHSFIKVNNELVRSRGGRYTPDELLILVPHCLQSSRCEIRLTYDMNHCKRCGKCPIRDLLALRDRYGVSLAIATGGTIARRIVVQTRPKLIIAVACERDLASGIQDTHPIPVYGVLNERPNGPCLDTLVPMQRLEAALRHFLRDVPVSAGGAPDESRRGRDAAAAFGKAQGPECRVTQGSSQRRGSDGEGHHHHHH”, the “soluble on expression in E. coli” value is recorded as “not soluble”.
As for “MSLKAPYTIGWANIYSVPTWMKQTEGTITAEVEELKKAGLVRDLMITDAQGNAQTQIQHIQSMIDANVDAIVVIAGSSNALDRVISDACDKGIAVVNFDSLVNTDKVTAKINTDSNEWGATAAKWMVSQLGGKGKIIIMNGPAGISVSDDRRKGAQPVLDANPGLQVITETNTEYNVAPAQEAMTSLLFANPEIDGVLSLGGALSAGSVLAFERQGRDQVPTTGENARQFLELWKEKGLKGWATMQPNWLGALSVYTAVQALEGKDVPAFVKVPLPVIDDSTIGSYLARADKFPADGYIYSDYDKALFDKLLATKEGHHHHHH”, the entry is “soluble”; as for “MSLKDRFDRFIDYFTEDEDSSLPYEKRDEPVFTSVNSSQEPALPMNQPSQSAGTKENNITRLHARQQELANQSQRATDKVIIDVRYPRKYEDATEIVDLLAGNESILIDFQYMTEVQARRCLDYLDGACHVLAGNLKKVASTMYLLTPVNVIVNVEDIRLPDEDQQGEFGFDMKRNRVRLEHHHHHH”, “not soluble”; as for “MSLKHHGKIKIKHAVKVLKVSRSGFYEYMHRRPSKQQVEREILSEKIKAVFHEHKGRYGAVRITKVLHNTGIMTNTKRVGKLMHLMGLYAKGSRYKYKHYNRKGASLSRPNLINQIFKATAPNKVWLGDMTYIPTKEGTLYLAVNIDVFSRKIVGWSMSSRMQDKLVRDCFLQACGKEHPQPGLIVHTDQGSQYTSSRYQSTLRQVGAQSSMSRKGNPYDNAMMESFYKTLKRELINDAHFETRAEATQEIFKYIETYYNTKRMHSGLDYKSPKDFEKYNSEGHHHHHH”, “not soluble”.
On to “MSLKIAKVEALSVAMGDGTGWMPTSAFVRITAEDGTVGWGEASPMLGGIASLGVVARDIAPFLEGQEVLDHAVLLDRMMHRLVKLGPEGIATAALAACDIALWDLKGKLLGQPIYKLLGGAWRTRLPCYSSIGGNAARSVDEVVREVARRVEAEQPAAVKIRWDGDRTRCDVDIPGDIAKARAVRELLGPDAVIGFDANNGYSVGGAIRVGRALEDLGYSWFEEPVQHYHVGAMGEVAQRLDITVSAGEQTYTLQALKDLILSGVRMVQPDIVKMGGITGMMQCAALAHAHGVEFVPHQTQPGVGHFANIHVLSTLMHMTKPVELADRWDRGRPVFRNPAEPVDGHFALGDAPGLGIVVDEDELASRATEITVGRDQRPPAGGQYEGHHHHHH”, for which the “soluble on expression in E. coli” value is “soluble”.
As to “MSLKIAVLDDYQDAVRKLDCFSLLQDHEVKVFNNTVKGVGQLAARVADVEAIVLIRERTRVTRQLLDRLPKLKIISQTGRVSRDAGGHIDLEACTDKGVVVLEGKGSPVAPAELTWALVMAAQRRIPQYVASLKHGAWQQSGLKSTTMPPNFGIGRVLKGQTLGIFGYGKIGQLVAGYGRAFGMNVLVWGRENSKERARADGFAVAESKDALFEQSDVLSVHLRLNDETRGIVTVADLTRMKPTALFVNTSRAELVEENGMVTALNRGRPGMAAIDVFETEPILQGHTLLRMENCICTPHIGYVERESYEMYFGIAFQNILDILQGNVDSVANPTALAPALIRAEGHHHHHH”, the “soluble on expression in E. coli” value is listed as “soluble”.
With “MSLKIIVIGGGAAGMSAASKAKRVNPDSEVIVVESGSYVSYAECGIPYYLQGVVGHIEDLLHYPLSEFTEKRGIKVLLHTTVTRIDTLHSSVLLNNGDVLKYDRLIIATGSRPKPIDVISDRTISIRSLESAMRARNLIEKSKDVTIVGAGVLGVELASVLAESGKNVKVISKYDRVLPQLDEDIGKIFHEYFSSRIDVQKQSSLKSAEEDRGRVKITTSVDDHECDAVIYATGIIPNSEIAVEAGIKTGDRNAILTNGHMETSEPGVYAAGDVATVRNIVTGLDEMMPLAQIANKAGRVAGSNASNSEMVFPGALGTTLVKVFDYEVGFTGINESRAKALGIPYEKTLIKAKSRANYYPGKQDIYVKIIYGKNDKRLLGAQVIGTDGAAWRLNTIATAIFGGFKVSDLFYDDLGYTPPFGPVWDSIVIAGSVSMREGHHHHHH” the entry was “soluble”; with “MSLKINVAPENPQYRIVEIFESLQGEGWNTGMPAVFVRLGKCNLACGWCDTDYLTFGMMGLSDILGRLKTYAARNIIITGGEPTIQPHLDMLLDTLKAEGYFLCLETNGLNPAPPQIDYVATSPKACYAAKYENSCIETADEVRIVADGDVLAFCENMERKIRAHHYYLSPCEQDGAMNIYDTIRQIGILNSRPDASVHWQLSVQTHKWAGIEEGHHHHHH”, “soluble”; with “MSLKIPEAVNHINVQNNIDLVDGKTNPNKATKALQKNILRVTNSSSSGISEKHLDHCANTVKNFLRKSIAAQSYSKMFSQGTSFKSLNLSIEAPSGARSSFRSLEHLDKVSRHYISEIIQKVHPLSSDERHLLSIIINSNFNFRHQSNSNLSNNILNIKSFDKIQSENIQTHKNTYSEDIKEISNHDFVFFGVEISNHQEKLPLNKTHHTVDFGANAYIIDHDSPYGYMTLTDHFDNAIPPVFYHEHQSFFLDNFKEVVDEVSRYVHGNQGKTDVPIFNTKDMRLGIGLHLIDFIRKSKDQGFREFCYNKNIDPVSLDRIINFVFQLEYHIPRMLSTDNFKKIKLRDISLEDAIKASNYEEINNKVTDKKMAHQALAYSLGNKKADIALYLLSKFNFTKQDVAEMEKMNNNRYCNLYDVEYLLSKDGANYKVLEYFINNGLVDVNKKFQKANSGDTMLDNAMKSKNPKMIDFLLKNGAILGKRFEIEGHHHHHH”, “soluble”.
For “MSLKISAIELYEYDLTYSHGTYVMSKGRSAKQQPSNLVRVITDSGIEGWGEAATLSGNYLPVFAGSTRAALRELAPLLIGQDPRGSTHLQRLMSSLLMGQANAKNAFDVACWDIFGKSVDLPISALIGGVLSTELPIFEAVPLSSTEESLDYIGKRSAQGIMRYQIKIGDDPVKDAARARAIVKAFPDIFFFVDANAGYTLLEAQIAMRALDDTNLYVEQPCRDIADCAMLRKISGLPIVLDEAVLTHADLYRAKYEVSAAAVNIKLGRLGGITPAVAMRNAAQDLGMHFCIEDVWGGDVTAAAVSHVAASAFPENLMHTSFFNDWTNEHVAGYQPRSRNGRGAAPTGPGLGITVDRSLLGAPVASFSEGHHHHHH”, the “soluble on expression in E. coli” value is given as “soluble”.
As for “MSLKISHIDLGEHPILLAPMEDVTDPAFRLMCKKFGADMVYTEFVSSDALIRAVSKTAQKLSISDEERPVAIQIYGKDTETMVEAAKIVEQAQPDILDINFGCPVKRVAGKGAGAGMLQNIPKMLEITRAVVDAVKIPVTVKTRLGWDANNKIIVDLAEQLQDCGIAALTIHGRTRAQMYTGEADWTLIGEVKNNQRMHIPIIGNGDVTTPQRCKECFDRYGVDAVMIGRASFGRPWIFKEVKHYLETGEELPPLSFEWCMEVLRQEVIDSVNLLDERRGILHVRRHLAASPLFKGIPNFKETRIAMLRAETKEELFRIFETIPEKVNSLLDEGHHHHHH”, the entry is “soluble”; as for “MSLKIVSFQDTKQNTGMESAEISEELNKLSKEKSDLQKKVNELQSQVKGYQNAAASSGSMNKQIVNELNTSNMLIGSVDVTGPGIILVITPQNISSSTNNSTGQNNDVITGEDLLYLINELNFSQAEAISINDVRITSMTGIRSSSGGSDIFVGDDRISPYEKITIKAIGDSKLLYSALSYPGVLSSVPSGYKADYDKYGSIKIGKTNKVIKFDYAKPISKEGHHHHHH”, “soluble”.
